Experimental data published in patent publication US20120244563A1 (J OIL MILLS, published 2012).
One block for each binder: values may come before it.

Columns and labels:
[1] = target: T1, Human serum albumin (human, UniProt P02768 25-609); experiment: ELISA; glycoprotein coated at 10 ng/mL, biotin-labeled lectin
T1 construct: Bought protein coated on the plate; also called HAS
Protocol: (§1) Serum glycoprotein (human serum albumin (CALBIOCHEM), Immunoglobulin G (Sigma), transferrin (Sigma), fibrinogen (AbD Serotec), Immunoglobulin A (BETYL) α2-macroglobulin (BMO), Immunoglobulin M (ROCKLAND), Complement C3 (CALBIOCHEM), haptoglobin (BIODESIGN), α1-acidic glycoprotein (Sigma), α-fetoprotein (Fitzgerald), α-fetoprotein L3 (Wako Pure Chemical Industries, Ltd) and prostate-specific antigen (Scipac) were dissolved in PBS at 1 mg/mL, and further diluted to 10 ng/mL with 0.1 M carbonate buffer (pH 9.5). Fifty μL of the diluted solution was added to a microtiter plate (Nunc 439454), and then incubated at 37° C. for 1 hour. After washed once with 0.05% Tween 20 (polyoxyethylene sorbitan monolaurate) (hereafter abbreviated as Tween)/PBS, 200 μL, of 1% bovine serum albumin (BSA)/PBS was added to the wells, and then incubated at 37° C. for 1 hour. The plate was washed twice with 0.05% Tween/PBS.
(§2) Fifty μL of the biotin labeled lectin solution prepared to 1 μg/mL with 1% BSA/0.05% Tween/PBS was added to the wells, and then left at room temperature for 1 hour. After washed twice with 0.05% Tween/PBS, 50 μL of the HRP labeled streptavidin solution (1 μg/mL) diluted with 1% BSA/0.05% Tween/PBS was added to the wells, and then left at room temperature for 30 minutes. After washed three times with 0.05% Tween/PBS, 50 μL of the HRP chromogenic substrate (product name: TMB Peroxidase substrate system, KPL) was added, and then left at room temperature for 5 minutes.
(§3) The absorbance values at 450 nm were subtracted by the absorbance value from the well on the plate in which no glycoprotein was immobilized, and the resulting values were taken as reaction values. Affinity was ranked by classifying the reaction values according to the following criteria.

[2] = target: T2, Haptoglobin from human serum (human, UniProt P00738 19-406, limits assumed, N-linked and O-linked glycans containing almost no fucose); experiment: as above
T2 construct: Natural haptoglobin is processed into α and β chains; also called Haptoglobin (HP); Serum HP
T2 sequence (looked up): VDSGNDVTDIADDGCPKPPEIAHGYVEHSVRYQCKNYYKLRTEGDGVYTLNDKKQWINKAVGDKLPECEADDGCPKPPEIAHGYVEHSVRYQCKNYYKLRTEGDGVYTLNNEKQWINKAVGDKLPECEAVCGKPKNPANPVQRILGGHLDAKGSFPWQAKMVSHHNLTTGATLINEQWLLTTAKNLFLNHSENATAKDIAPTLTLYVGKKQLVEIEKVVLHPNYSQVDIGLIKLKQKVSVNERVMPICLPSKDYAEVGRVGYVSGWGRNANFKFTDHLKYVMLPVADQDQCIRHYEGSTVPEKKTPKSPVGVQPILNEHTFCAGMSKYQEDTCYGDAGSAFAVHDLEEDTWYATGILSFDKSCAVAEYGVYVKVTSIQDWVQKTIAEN
Protocol: as §1, §2, §3

[3] = target: T3, Complement C3; experiment: ELISA; coated glycoprotein, biotin-labeled lectin 1 µg/mL; grade of A450 reaction value (Low 0.1 to 0.2, Moderate 0.2 to 0.5, High 0.5 or more)
T3 construct: Bought protein coated on the plate
Protocol: as §1, §2, §3

[4] = target: T4, Transferrin; experiment: as above
T4 construct: Bought protein coated on the plate; also called TF
Protocol: as §1, §2, §3

[5] = target: T2, Haptoglobin from human serum; experiment: as above
Protocol: as §1, §2, §3

[6] = target: T5, Fibrinogen; experiment: as above
T5 construct: Bought protein coated on the plate; also called FB
Protocol: as §1, §2, §3

[7] = target: T6, α1-Acid glycoprotein; experiment: as above
T6 construct: Bought protein coated on the plate; also called AGP; α1-acidic glycoprotein
Protocol: as §1, §2, §3

[8] = target: T7, Immunoglobulin M; experiment: as above
T7 construct: Serum glycoprotein coated on the plate; also called IgM
Protocol: as §1, §2, §3

[9] = target: T8, Immunoglobulin G; experiment: as above
T8 construct: Serum glycoprotein coated on the plate; also called IgG
Protocol: as §1, §2, §3

[10] = target: T9, α2-Macroglobulin; experiment: as above
T9 construct: Bought protein coated on the plate; also called α2MG
T9 sequence (P01023 24-1474, species assumed, looked up): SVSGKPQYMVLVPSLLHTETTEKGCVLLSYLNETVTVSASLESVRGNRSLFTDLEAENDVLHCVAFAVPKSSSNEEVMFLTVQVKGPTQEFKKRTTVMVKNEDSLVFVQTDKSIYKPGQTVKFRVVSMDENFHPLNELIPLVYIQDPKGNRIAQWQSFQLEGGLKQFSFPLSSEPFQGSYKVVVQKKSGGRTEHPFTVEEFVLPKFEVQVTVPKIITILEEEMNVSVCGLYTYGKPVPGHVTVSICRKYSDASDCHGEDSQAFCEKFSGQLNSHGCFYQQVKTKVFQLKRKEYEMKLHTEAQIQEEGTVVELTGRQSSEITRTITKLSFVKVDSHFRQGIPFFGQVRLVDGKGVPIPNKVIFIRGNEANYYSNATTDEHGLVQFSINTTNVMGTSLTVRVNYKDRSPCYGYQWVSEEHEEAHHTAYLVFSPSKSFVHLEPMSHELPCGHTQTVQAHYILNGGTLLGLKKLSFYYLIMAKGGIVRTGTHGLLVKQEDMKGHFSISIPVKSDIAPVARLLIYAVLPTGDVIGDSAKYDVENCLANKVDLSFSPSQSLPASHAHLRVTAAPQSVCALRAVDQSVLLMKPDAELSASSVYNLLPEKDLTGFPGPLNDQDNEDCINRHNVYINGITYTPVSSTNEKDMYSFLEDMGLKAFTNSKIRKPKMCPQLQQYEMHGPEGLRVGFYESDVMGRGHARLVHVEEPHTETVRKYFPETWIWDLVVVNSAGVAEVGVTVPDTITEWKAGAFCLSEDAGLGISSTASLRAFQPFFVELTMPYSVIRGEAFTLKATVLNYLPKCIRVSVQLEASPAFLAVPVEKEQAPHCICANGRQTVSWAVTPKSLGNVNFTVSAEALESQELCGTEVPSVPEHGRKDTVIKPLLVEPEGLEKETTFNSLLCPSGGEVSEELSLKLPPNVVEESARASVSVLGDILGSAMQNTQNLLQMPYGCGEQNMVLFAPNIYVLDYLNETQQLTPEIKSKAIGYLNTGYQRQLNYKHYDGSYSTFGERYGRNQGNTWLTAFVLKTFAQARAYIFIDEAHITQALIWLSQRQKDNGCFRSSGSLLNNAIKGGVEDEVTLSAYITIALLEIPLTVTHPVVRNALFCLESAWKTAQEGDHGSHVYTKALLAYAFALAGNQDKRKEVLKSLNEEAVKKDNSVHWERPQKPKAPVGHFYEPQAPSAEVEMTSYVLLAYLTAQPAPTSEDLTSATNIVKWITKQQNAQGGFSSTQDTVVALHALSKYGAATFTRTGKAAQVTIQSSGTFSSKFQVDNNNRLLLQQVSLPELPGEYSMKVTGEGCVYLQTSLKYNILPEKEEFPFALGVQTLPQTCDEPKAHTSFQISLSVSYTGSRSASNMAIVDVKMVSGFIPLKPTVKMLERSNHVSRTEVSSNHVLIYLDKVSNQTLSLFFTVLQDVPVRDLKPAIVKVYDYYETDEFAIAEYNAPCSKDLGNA
Protocol: as §1, §2, §3

[11] = target: T10, Immunoglobulin A; experiment: as above
T10 construct: Serum glycoprotein coated on the plate; also called IgA
Protocol: as §1, §2, §3

[12] = target: T1, Human serum albumin; experiment: as above
Protocol: as §1, §2, §3

T1 sequence (P02768 25-609 limits assumed): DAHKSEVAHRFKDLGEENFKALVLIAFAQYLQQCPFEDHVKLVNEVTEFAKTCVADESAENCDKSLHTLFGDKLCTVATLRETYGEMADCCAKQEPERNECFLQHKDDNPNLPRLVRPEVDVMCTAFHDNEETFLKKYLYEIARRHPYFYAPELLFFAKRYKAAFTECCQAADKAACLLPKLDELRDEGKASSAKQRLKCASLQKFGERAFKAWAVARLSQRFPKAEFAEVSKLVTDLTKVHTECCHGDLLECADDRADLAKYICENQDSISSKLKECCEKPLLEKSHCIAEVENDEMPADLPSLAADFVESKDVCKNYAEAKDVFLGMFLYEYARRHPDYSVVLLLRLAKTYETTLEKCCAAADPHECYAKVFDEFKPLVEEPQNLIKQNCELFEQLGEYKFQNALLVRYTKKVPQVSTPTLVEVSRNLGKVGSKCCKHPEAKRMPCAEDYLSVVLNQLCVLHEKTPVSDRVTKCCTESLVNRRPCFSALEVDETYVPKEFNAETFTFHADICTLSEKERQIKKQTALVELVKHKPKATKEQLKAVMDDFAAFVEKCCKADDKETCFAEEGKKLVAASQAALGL
T3 sequence (P01024 23-667, chain 1 of 2): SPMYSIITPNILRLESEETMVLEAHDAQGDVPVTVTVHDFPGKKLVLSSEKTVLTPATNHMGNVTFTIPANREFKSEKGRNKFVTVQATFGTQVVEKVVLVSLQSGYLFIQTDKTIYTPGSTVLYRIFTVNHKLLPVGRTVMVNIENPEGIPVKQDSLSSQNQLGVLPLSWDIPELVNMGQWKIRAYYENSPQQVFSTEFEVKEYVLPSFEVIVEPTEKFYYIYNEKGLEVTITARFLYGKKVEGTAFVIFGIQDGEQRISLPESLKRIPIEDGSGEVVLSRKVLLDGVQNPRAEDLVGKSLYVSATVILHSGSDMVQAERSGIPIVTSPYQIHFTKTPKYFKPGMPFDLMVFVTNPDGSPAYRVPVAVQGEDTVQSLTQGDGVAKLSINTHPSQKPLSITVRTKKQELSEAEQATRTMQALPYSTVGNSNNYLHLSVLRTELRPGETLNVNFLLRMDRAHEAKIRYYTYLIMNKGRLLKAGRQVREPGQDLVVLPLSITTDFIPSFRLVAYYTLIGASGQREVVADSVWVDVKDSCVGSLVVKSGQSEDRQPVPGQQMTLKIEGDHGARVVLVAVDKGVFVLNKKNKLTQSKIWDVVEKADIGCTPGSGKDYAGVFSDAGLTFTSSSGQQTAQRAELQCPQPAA
T3 sequence (P01024 672-1663, chain 2 of 2): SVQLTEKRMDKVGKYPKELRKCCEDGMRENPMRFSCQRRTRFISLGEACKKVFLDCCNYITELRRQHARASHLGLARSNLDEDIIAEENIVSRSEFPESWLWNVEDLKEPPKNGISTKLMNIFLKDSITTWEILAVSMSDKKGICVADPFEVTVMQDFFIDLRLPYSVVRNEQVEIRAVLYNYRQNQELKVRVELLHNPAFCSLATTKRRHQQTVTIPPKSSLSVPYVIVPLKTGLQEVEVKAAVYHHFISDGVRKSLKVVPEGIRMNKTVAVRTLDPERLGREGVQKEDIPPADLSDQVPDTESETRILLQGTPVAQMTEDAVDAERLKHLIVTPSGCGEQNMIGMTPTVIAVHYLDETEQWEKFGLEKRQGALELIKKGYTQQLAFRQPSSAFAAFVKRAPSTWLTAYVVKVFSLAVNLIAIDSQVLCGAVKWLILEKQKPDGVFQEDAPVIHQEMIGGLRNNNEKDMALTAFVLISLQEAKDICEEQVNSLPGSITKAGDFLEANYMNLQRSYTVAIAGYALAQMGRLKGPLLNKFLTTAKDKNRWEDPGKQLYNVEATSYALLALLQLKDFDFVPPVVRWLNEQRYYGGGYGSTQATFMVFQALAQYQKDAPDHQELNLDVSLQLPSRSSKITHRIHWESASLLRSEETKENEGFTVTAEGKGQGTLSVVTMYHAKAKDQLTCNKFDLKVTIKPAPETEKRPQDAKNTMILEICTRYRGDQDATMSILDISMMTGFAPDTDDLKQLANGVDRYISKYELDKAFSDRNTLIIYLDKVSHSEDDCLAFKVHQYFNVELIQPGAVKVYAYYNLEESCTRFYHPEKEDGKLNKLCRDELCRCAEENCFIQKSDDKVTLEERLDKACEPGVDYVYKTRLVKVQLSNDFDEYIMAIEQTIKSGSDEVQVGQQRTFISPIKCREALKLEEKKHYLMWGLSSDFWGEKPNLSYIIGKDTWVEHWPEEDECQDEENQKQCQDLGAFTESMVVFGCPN
T4 sequence (P02787 20-698): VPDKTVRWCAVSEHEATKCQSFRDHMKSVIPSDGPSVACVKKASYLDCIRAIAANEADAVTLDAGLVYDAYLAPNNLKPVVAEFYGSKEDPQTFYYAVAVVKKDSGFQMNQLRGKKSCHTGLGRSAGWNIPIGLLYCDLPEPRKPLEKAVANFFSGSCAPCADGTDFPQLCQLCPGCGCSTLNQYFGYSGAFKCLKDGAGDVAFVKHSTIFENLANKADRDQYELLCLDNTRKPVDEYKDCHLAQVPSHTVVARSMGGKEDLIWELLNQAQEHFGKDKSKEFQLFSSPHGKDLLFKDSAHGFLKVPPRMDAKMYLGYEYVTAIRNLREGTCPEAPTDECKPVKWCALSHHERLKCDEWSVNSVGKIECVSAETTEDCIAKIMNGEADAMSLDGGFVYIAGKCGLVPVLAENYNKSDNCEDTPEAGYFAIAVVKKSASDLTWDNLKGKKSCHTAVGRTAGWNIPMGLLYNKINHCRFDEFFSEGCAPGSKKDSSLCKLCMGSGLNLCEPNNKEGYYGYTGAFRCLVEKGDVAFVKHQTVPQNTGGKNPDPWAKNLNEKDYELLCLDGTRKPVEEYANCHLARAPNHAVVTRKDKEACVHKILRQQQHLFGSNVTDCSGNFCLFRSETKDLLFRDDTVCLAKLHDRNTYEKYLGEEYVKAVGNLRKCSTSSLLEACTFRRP
T6 sequence (P02763 19-201): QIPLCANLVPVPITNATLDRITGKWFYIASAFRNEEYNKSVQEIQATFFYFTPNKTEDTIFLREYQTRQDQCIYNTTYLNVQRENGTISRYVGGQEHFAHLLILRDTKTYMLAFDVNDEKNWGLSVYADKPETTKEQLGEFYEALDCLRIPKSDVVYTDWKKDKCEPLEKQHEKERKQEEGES

binding result [1]: no binding
B1: Lens culinaris lectin (other)
chain 1: TETTSFSITKFSPDQKNLIFQGDGYTTKGKLTLTKAVKSTVGRALYSTPIHIWDRDTGNVANFVTSFTFVIDAPSSYNVADEFTFFIAPVDTKPQTGGGYLGVFNSKEYDKTSQTVAVEFDTFYNAAWDPSNKERHIGIDVNSIKSVNTKSWNLQNGERANVVIAFNAATNVLTVTLTYP
chain 2: VTSYTLNEVVPLKDVVPEWVRIGFSATTGAEFAAHEVHSWSFHSELGGTSSS
modifications: biotin label (site not stated)
notes: Bought, biotin-labeled; The natural lectin is processed into alpha and beta chains; also called LCA

binding result [2]: no binding | binding result [1]: no binding
B2: Ulex europaeus lectin (other, UniProt P22972 1-243, looked up)
chain: SDDLSFKFKNFSQNGKDLSFQGDASVIETGVLQLNKVGNNLPDETGGIARYIAPIHIWNCNTGEVASFITSFSFFMETSANPKAATDGLTFFLAPPDSPLRRAGGYFGLFEDTKDNDSSYQTVAVEFDTIGSPVNFDDPGFPHIGIDVNRVKSINAERWNKRYGLNNVANVEIIYEASSKTLTASLTYPSDQTSISVTSIVDLKEILPEWVSVGFSGGTYIGRQATHEVLNWYFTSNLINTNS
modifications: biotin label (site not stated)
notes: Bought, biotin-labeled; also called UEA-I; UEA- 1

reaction value (absorbance at 450 nm minus blank) [3]: 0.1 to 0.2 od | reaction value (absorbance at 450 nm minus blank) [4]: 0.1 to 0.2 od | reaction value (absorbance at 450 nm minus blank) [5]: 0.1 to 0.2 od | reaction value (absorbance at 450 nm minus blank) [6]: 0.1 to 0.2 od | reaction value (absorbance at 450 nm minus blank) [7]: 0.2 to 0.5 od | reaction value (absorbance at 450 nm minus blank) [8]: 0.2 to 0.5 od | reaction value (absorbance at 450 nm minus blank) [9]: 0.1 to 0.2 od | reaction value (absorbance at 450 nm minus blank) [10]: ≥ 0.5 od | reaction value (absorbance at 450 nm minus blank) [11]: 0.2 to 0.5 od | reaction value (absorbance at 450 nm minus blank) [12]: 0.1 to 0.2 od
B3: Aleuria aurantia lectin (other, UniProt P18891 2-313, looked up)
chain: PTEFLYTSKIAAISWAATGGRQQRVYFQDLNGKIREAQRGGDNPWTGGSSQNVIGEAKLFSPLAAVTWKSAQGIQIRVYCVNKDNILSEFVYDGSKWITGQLGSVGVKVGSNSKLAALQWGGSESAPPNIRVYYQKSNGSGSSIHEYVWSGKWTAGASFGSTVPGTGIGATAIGPGRLRIYYQATDNKIREHCWDSNSWYVGGFSASASAGVSIAAISWGSTPNIRVYWQKGREELYEAAYGGSWNTPGQIKDASRPTPSLPDTFIAANSSGNIDISVFFQASGVSLQQWQWISGKGWSIGAVVPTGTPAGW
modifications: biotin label (site not stated)
notes: Bought, biotin-labeled; also called AAL
